# B1: Superoxide dismutase (Mn/Fe-dependent SOD) from Saccharolobus solfataricus P2 (enzyme, UniProt P80857 1-211, looked up)
# chain: MTLQIQFKKYELPPLPYKIDALEPYISKDIIDVHYNGHHKGYVNGANSLLERLEKVVKGDLQTGQYDIQGIIRGLTFNINGHKLHALYWENMAPSGKGGGKPGGALADLINKQYGSFDRFKQVFTETANSLPGTGWAVLYYDTESGNLQIMTFENHFQNHIAEIPIILILDEFEHAYYLQYKNKRADYVNAWWNVVNWDAAEKKLQKYLTK
# notes: Mn/Fe-dependent superoxide dismutase of Saccharolobus solfataricus P2; whole CDS (636 bp) amplified from genomic DNA and expressed in tomato cells; subunit of approximately 24 kDa; ORF cloned into the NcoI-XbaI sites of pCK-EGFP, then into pBI121; No tag is mentioned; also called SODSs; sodSs product
# Target: the molecule itself
# Assay: SEC; Superdex 200 calibrated with standard protein markers; 50 mM Tris-HCl pH 7.5, 50 mM NaCl; partially purified SOD (ultrafiltration retentate of transformed tomato cell extract) loaded; apparent native mass compared with the theoretical mass of a homodimer
protein,measurement,value
B1,stoichiometry N,2

# Reference: paper PMC9495943, “Recombinant Expression of Archaeal Superoxide Dismutases in Plant Cell Cultures: A Sustainable Solution with Potential Application in the Food Industry” (Antioxidants, 2022)
